The supplement of paper PMC12764529
± gives the half width of the 95% confidence interval.

Columns and labels:
[1] = folding stability dG unfold from chymotrypsin proteolysis; higher = more stable
In short: (§1)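 Designed mini-proteins with no cysteine and under 80 residues were kept only if AlphaFold2 dimer inter-PAE was above 15. In a PA-tagged cDNA display construct, they were digested with trypsin and chymotrypsin and then sequenced. K50 was inferred by Bayesian fitting of counts, and unfolding free energy was derived per protease or combined against a sequence-predicted unfolded-state K50 and a shared folded-state K50.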

[2] = folding stability dG unfold (combined trypsin and chymotrypsin); higher = more stable
In short: as §1

[3] = folding stability dG unfold from trypsin proteolysis; higher = more stable
In short: as §1

Sequence | folding stability dG unfold [1] [kcal/mol] | folding stability dG unfold [2] [kcal/mol] | folding stability dG unfold [3] [kcal/mol]
SAGGSYLVEVVIEYPKQGVKKTVKLFVNNDPKKAEELAEDIIKELGYPDAKIEIKIIPVDPNDPRVLGSAGG [r13_682_JUSTAS] | 2.445 ± 0.022 | 2.25 ± 0.057 | 1.98 ± 0.034
SAGGSAGGSAMTPQVIKVTLYKPATGDVRTVVVLDPVPNTSLDEVAAALPSDYVVAKVEVGSAGGSAGGSAG [r3_80_TrMRF] | -0.308 ± 0.33 | -0.0325 ± 0.14 | 0.166 ± 0.079
SAGGSAGGSAMKILSVTEEVLPNGTRVVRVTVKLPTPKTREIVVSPEVVEAGRLDEVVEELLSAGGSAGGSA [r18_129_JUSTAS] | 1.82 ± 0.031 | 1.66 ± 0.062 | 1.38 ± 0.033
SAGGSAGGSAGGSIEINIMFELPNGLIFRISTTIEPNPDGNLKLDIDIEVIPIKPGQPISAGGSAGGSAGGS [r10_241_TrROS] | 4.19 ± 0.13 | 3.96 ± 0.23 | 3.11 ± 0.14
SAGGSAGGSMETTREELPPELTVERVTEREPGEGRITVRVKVYRPDGTLLSEEVVERDPEDLESAGGSAGGS [r12_240_JUSTAS] | 0.166 ± 0.14 | 0.295 ± 0.097 | 0.319 ± 0.053
SMFRIRFKDGSEFDIELNEDGELTITNKNGKKITLTFKTKEEALKAAEELKKKYPNMKVEIEEVSPEELKSA [r9_1206_TrROS_Hall] | 3.504 ± 0.016 | 3.13 ± 0.12 | 2.6 ± 0.059
SSPLINILTVEVTAETPSGGSFSKTFTFPASKYTEEEIREKIKEEYPDLTDIKITPKVTKIPPGPKILLASA [r9_841_JUSTAS] | 1.98 ± 0.18 | 1.76 ± 0.18 | 1.29 ± 0.07
SMTLVLDVSPDKAYKFKIEYKTPDGKRLTVDADTTMEPDGTARVPLKIPDSSVPPGTPLEIEKVEVTPLLSA [r9_359_JUSTAS] | 0.699 ± 0.099 | 0.436 ± 0.066 | -0.136 ± 0.085
SAGGSAMLKVTERTVEVEVFDEEGNPIGWRERKIVVEDPLSPEPRPPPPPVDPVLAAETLGADVLESAGGSA [r15_572_JUSTAS] | 0.543 ± 0.21 | 0.393 ± 0.14 | -0.0577 ± 0.14
SAGGSAGGTIPSDYSVKELKVGGKKYVIVRYPDGIVELYSVEGNKKTLLRTVDTDPNASVSISGSAGGSAGG [r6_476_JUSTAS] | 2.67 ± 0.04 | 2.38 ± 0.097 | 1.73 ± 0.044
SAGGSKTVTVTVRIKVTNEDGEELTVTARLTYNEETGEVTVEIEMSPEALERLRELFPDVKIEIYPSAGGSA [r2_409_TrROS_Hall] | 3.09 ± 0.13 | 3.9 ± 0.32 | 4.08 ± 0.22
SAGGSAGGSAGFKSVTIGSGTGGLTLTITDVTTGKNTVVNATSLEEAEKIGKEKGWKIILSSAGGSAGGSAG [r3_67_JUSTAS] | -0.281 ± 0.4 | 0.305 ± 0.15 | 0.604 ± 0.07
SAKIRIPLEKLIDLAESIPGVEVLYDPETGLLLAFIPEIGMLILIRLEEDPEDPDNVEVDIEIIPLSPFSAG [r14_604_TrMRF] | 2.08 ± 0.22 | 2.4 ± 0.19 | 2.75 ± 0.16
SAGGSAGGSAGGSAPPKVEIEVTVLVKDEDGRLYVFKAKATFDLETNELTVEVEVYELPSAGGSAGGSAGGS [r4_445_TrROS_Hall] | 4.79 ± 0.13 | 4.66 ± 0.35 | 3.22 ± 0.39
SAGGSAGGSDPNNEPVYIMMKFEIEIKVERDPENGKPKAEDPITITFIIRIPPNGNLEIGIMISAGGSAGGS [r12_438_TrROS] | 4.33 ± 0.13 | 4.11 ± 0.12 | 3.52 ± 0.11
SAGGSAGGSPSEEARKKGGLTLTITLRYPDGSTVTITYPVSTPLTIPEEFAKNPPKIESIELSSAGGSAGGS [r12_161_JUSTAS] | 1.38 ± 0.051 | 1.34 ± 0.073 | 1.23 ± 0.019
SAGSSTPGSEVVRVTSEVSEGESNRTVSYTTYVFEPGGPALRPLSTSTTTVPAAPGVPEGGTKTISLPGSAG [r5_861_JUSTAS] | -0.755 ± 0.2 | -0.534 ± 0.11 | -0.419 ± 0.064
SAGGSAMKLTLKDKKGNTLFLEVEEKTSEDGTPYYEVKIYYPNTNKVEYAEVPVENLEEFAKKLADSAGGSA [r15_92_TrMRF] | 3.31 ± 0.086 | 3.25 ± 0.18 | 3.21 ± 0.09
SAGGSAGGSAGGMVELDPENGTLTVLVEVDGELYKVTIKFNPETNEIVSIEVEKLPELEESAGGSAGGSAGG [r7_343_TrROS_Hall] | 3.85 ± 0.31 | 3.66 ± 0.42 | 3.03 ± 0.41
GMNLKETTVTIPLKVKSEEEAKKKAEEIANELKKKYPDIIEIKIEIKEIDKETGIVIITIKFKAKNSSVLLS [r1_52_JUSTAS] | 1.27 ± 0.14 | 2 ± 0.55 | 2.18 ± 0.33
SAGGSAGGSAMPEPVLIVVEVESLEEAKKLAEELAVEGVKVEVDPESGLVKIEIEKESLLESAGGSAGGSAG [r3_186_TrMRF] | 1.23 ± 0.08 | 1.12 ± 0.11 | 1.03 ± 0.092

Sequence | folding stability dG unfold [1] [kcal/mol] | folding stability dG unfold [2] [kcal/mol] | folding stability dG unfold [3] [kcal/mol]
SAGGSAGGSAGGAMAPDEPVERVEVTYKTGRLTFPGKPVLKKEKVVLKFTLTVTDPALLSAGGSAGGSAGGS [r10_745_JUSTAS] | -0.0228 ± 0.28 | 0.0101 ± 0.15 | -0.234 ± 0.33
SAGGPGYNINIDVKIYPDPNDNHFVIEVKITIMPMEPDPDDGGWKQRSRTVPQEILLPPGESAEDIFSAGGS [r8_323_TrROS] | 1.86 ± 0.1 | 2.62 ± 0.13 | 3.19 ± 0.17
SAGGSAGGSAMTVRIEFEDGSVKEIPAEEFSEDFIKALPKKYKVSEYPEPPLDNNKSNILKSAGGSAGGSAG [r3_69_JUSTAS] | 0.697 ± 0.085 | 0.431 ± 0.091 | -0.0131 ± 0.059
SAGGSAGGSASMKKKKFVVKTEEEAEKVIAELKAKVPKGTEVEIYIKNEDGTLEKYAIIKISAGGSAGGSAG [r3_92_JUSTAS] | 3.15 ± 0.047 | 3.13 ± 0.15 | 2.91 ± 0.11
SAGGSKIRIVEIQPSNGFTIKIRPKNGKKMTIPIPPDDMNDPENWERFARTLAKWFEKNGVKDIEISAGGSA [r2_249_TrROS] | 0.615 ± 0.37 | 0.538 ± 0.26 | 0.312 ± 0.17
SAGSGVILRTPEGKYVPLSALSEEEIKTAIEDPLSPAPPVTVEVTVTSVRLPVPRTVTTTEVVVTVLGSAGG [r19_232_JUSTAS] | 0.233 ± 0.19 | 0.115 ± 0.19 | -0.00526 ± 0.21
SAGGSAGGSAGGMKTLTVTTESLTKEEIIEEIKAMGYPNAKVTVTPSPENPDKYIVNVIESAGGSAGGSAGG [r7_988_JUSTAS] | 0.736 ± 0.13 | 0.404 ± 0.18 | 0.292 ± 0.091
SAGSSMSVTIKVTIRSPTRTEEIEITVSPSESLEEAIKKVAEKLPPDYSITITFEGGETVTIPIPKELLSAG [r5_77_JUSTAS] | 1.15 ± 0.024 | 1.58 ± 0.089 | 1.93 ± 0.1
SAGMVTITVETTDPQGNWTTKTYEFPLDPGYSLDDVIKRHSPPNAKKYEVTKTEPPPPVTEIKLTVEPSSAG [r5_227_JUSTAS] | 1.1 ± 0.19 | 0.822 ± 0.46 | 0.698 ± 0.082
SAGGSAGGSAGKKKTITIKIPGMSKEEIAKLIKEKFGPNVKITEIKENKDNLLEITVEVESAGGSAGGSAGG [r11_580_TrROS_Hall] | 2.79 ± 0.19 | 2.99 ± 0.24 | 2.79 ± 0.22
SAGGGVPLTRSEPLGEIEFPEENIKLKISRYTSPLDGTEYIEITTDYGEGTSTSIYPPGEIEEILGGSAGGS [r16_603_JUSTAS] | 1.39 ± 0.19 | 0.909 ± 0.18 | 0.666 ± 0.12
SEEIIKALEEAGYEVESIEYDEETKTVTITIYRKNKETGKIEKKTITIEVEPGMTEEELLALARELLEKESA [r9_184_TrROS_Hall] | 4.71 ± 0.31 | 4.83 ± 0.66 | 4.77 ± 0.93
SAKLIRDLLRDHGFPIKNIDVQKNPNGKTYISIEIKMYTPEYKNDEGRPKPRPVEMTATFPADDLLDALSAG [r14_16_TrROS] | 0.507 ± 0.25 | 0.676 ± 0.25 | 0.91 ± 0.16
WRIRVEIEMYNPDGDPMEMEIQIPVDKLQELRQEGEPFTKEELVDEIVEIIRDMMPEHGMPIEIKIVEIVPS [r1_174_TrROS] | 1.76 ± 0.074 | 1.76 ± 0.2 | 1.64 ± 0.051
SMSVVVPPDEGLTVTLTTLPGGTIEIHVGDTVLTRDVAPGETLTVTVPPDRTGNTVTVVGPGGVVVTSSGSA [r9_143_JUSTAS] | 0.71 ± 0.024 | 0.95 ± 0.044 | 1.18 ± 0.048
SAGGSAPRIRVHFWNPNTGQWHHIPVERLKKAIDKNPPGEELEFPIPGYPVKVQVEPDDGTIWIRMSAGGSA [r15_350_TrROS] | 1.17 ± 0.25 | 1.19 ± 0.16 | 1.01 ± 0.061
SAGGSAGGMVYKIRDKETGKVYEVTIDEETNEITVYDVKTGKPVKTVNMTIEELKEAGYEVEPVSAGGSAGG [r6_831_TrROS_Hall] | 3.27 ± 0.034 | 3.4 ± 0.2 | 3.61 ± 0.16
SAGGKKYKVIKEIEITLENGKKIKIKLIEYNEKTNEYILEITYPDGKKITITVPKGMSIEEALKKLLSSAGG [r13_470_TrROS_Hall] | 2.52 ± 0.051 | 2.41 ± 0.12 | 2.37 ± 0.16
SAGGSAGGSTPELLKKLPPGAKVEVETRLVTNEDGSVYKVVKIKIVDKKTNKTLELELVVKLPSAGGSAGGS [r12_892_TrROS_Hall] | 1.65 ± 0.052 | 1.96 ± 0.07 | 2.13 ± 0.041
SSITETKEFLLESEEEVEAIAEELKKPGVEVEVEVKEVERVDKKTGKKKKALKATITVKIPLPPPEKGKLSA [r9_962_JUSTAS] | 0.742 ± 0.069 | 0.794 ± 0.15 | 0.79 ± 0.054
SHMVTVTIYKNGVKVKETEIPLEEVEKMPEEEIIEFAAEIAKKNPGVNYTFTITRPSGPSTVSIDGPEKLKS [r1_477_JUSTAS] | 1.55 ± 0.14 | 1.28 ± 0.21 | 0.762 ± 0.12
